Key:
pure calmodulin = molecular target: T1, pure calmodulin (UniProt P0DP23 1-149); assay: pull-down; 2 μg pure calmodulin in lysis buffer B with 1 mM Ca^2+ with GST-KSR1 constructs on glutathione-Sepharose beads, 3 h at 4 °C; blot with anti-calmodulin; conditions: both partners purified
T1 construct: Pure calmodulin from Ocean Biologics; also called purified calmodulin; CaM; source: bought: Ocean Biologics

[1] = molecular target: T2, calmodulin-Sepharose (calmodulin coupled to Sepharose beads) (UniProt P0DP23 1-149); assay: pull-down; 500 ng purified His-KSR1 with 30 μl calmodulin-Sepharose or GST-Sepharose, lysis buffer B (50 mM Tris-HCl pH 7.4, 150 mM NaCl, 1% Triton-X 100) with 1 mM CaCl2, 3 h at 4 °C; blot with anti-KSR1; conditions: both partners purified
T2 construct: Calmodulin coupled to Sepharose; also called CaM; source: bought: GE Healthcare (17-0529-01), calmodulin-Sepharose beads

Binder | binding result (pure calmodulin) | binding result [1]
GST-KSR1-M (amino acid residues 319–433) (domain or fragment, Vector pGEX2T-TEV; also called M-fragment; pGEX2T-TEV-KSR1-M; source: E. coli, isolated with glutathione-Sepharose beads) GSPQLVRRDIGLSVTHRFSTKSWLSQVCNVCQKSMIFGVKCKHCRLKCHNKCTKEAPACRITFLPLARLRRTESVPSDINNPVDRAAEPHFGTLPKALTKKEHPPAMNLDSSSNP | binds | 
His-tagged full-length KSR1 (kinase suppressor of Ras1) (natural protein, Kinase suppressor of Ras1 (KSR1), full length; Plasmid pTrace-His-KSR1 was a gift (Piero Crespo); the construct is not described further; also called His-KSR1; purified KSR1; source: 90% pure) MDRAALRAAAMGEKKEGGGGGAAADGGAGAAVSRALQQCGQLQKLIDISIGSLRGLRTKCSVSNDLTQQEIRTLEAKLVKYICKQQQSKLSVTPSDRTAELNSYPRFSDWLYIFNVRPEVVQEIPQELTLDALLEMDEAKAKEMLRRWGASTEECSRLQQALTCLRKVTGLGGEHKMDSGWSSTDARDSSLGPPMDMLSSLGRAGASTQGPRSISVSALPASDSPVPGLSEGLSDSCIPLHTSGRLTPRALHSFITPPTTPQLRRHAKLKPPRTPPPPSRKVFQLLPSFPTLTRSKSHESQLGNRIDDVTPMKFELPHGSPQLVRRDIGLSVTHRFSTKSWLSQVCNVCQKSMIFGVKCKHCRLKCHNKCTKEAPACRITFLPLARLRRTESVPSDINNPVDRAAEPHFGTLPKALTKKEHPPAMNLDSSSNPSSTTSSTPSSPAPFLTSSNPSSATTPPNPSPGQRDSRFSFPDISACSQAAPLSSTADSTRLDDQPKTDVLGVHEAEAEEPEAGKSEAEDDEEDEVDDLPSSRRPWRGPISRKASQTSVYLQEWDIPFEQVELGEPIGQGRWGRVHRGRWHGEVAIRLLEMDGHNQDHLKLFKKEVMNYRQTRHENVVLFMGACMNPPHLAIITSFCKGRTLHSFVRDPKTSLDINKTRQIAQEIIKGMGYLHAKGIVHKDLKSKNVFYDNGKVVITDFGLFGISGVVREERRENQLKLSHDWLCYLAPEIVREMIPGRDEDQLPFSKAADVYAFGTVWYELQARDWPFKHQPAEALIWQIGSGEGVRRVLASVSLGKEVGEILSACWAFDLQERPSFSLLMDMLERLPKLNRRLSHPGHFWKSADINSSKVMPRFERFGLGTLESGNPKM |  | binds

— article PMC8079274, “Calmodulin influences MAPK signaling by binding KSR1” (The Journal of Biological Chemistry, 2021)
